Bridge positions count the residues as written; N and C are the ends. Square brackets hold non-standard residues; d marks the D form. Ends that are not written are not given here. S5 = C=CCCC[C@](C)(N)C(=O)O

The test has as its target T1, VLCAD (Homo sapiens, UniProt P49748).
T1 construct: 10x His (N); made in house; host or cells: E. coli BL21(DE3), pET19b
T1 sequence (P49748 40-655): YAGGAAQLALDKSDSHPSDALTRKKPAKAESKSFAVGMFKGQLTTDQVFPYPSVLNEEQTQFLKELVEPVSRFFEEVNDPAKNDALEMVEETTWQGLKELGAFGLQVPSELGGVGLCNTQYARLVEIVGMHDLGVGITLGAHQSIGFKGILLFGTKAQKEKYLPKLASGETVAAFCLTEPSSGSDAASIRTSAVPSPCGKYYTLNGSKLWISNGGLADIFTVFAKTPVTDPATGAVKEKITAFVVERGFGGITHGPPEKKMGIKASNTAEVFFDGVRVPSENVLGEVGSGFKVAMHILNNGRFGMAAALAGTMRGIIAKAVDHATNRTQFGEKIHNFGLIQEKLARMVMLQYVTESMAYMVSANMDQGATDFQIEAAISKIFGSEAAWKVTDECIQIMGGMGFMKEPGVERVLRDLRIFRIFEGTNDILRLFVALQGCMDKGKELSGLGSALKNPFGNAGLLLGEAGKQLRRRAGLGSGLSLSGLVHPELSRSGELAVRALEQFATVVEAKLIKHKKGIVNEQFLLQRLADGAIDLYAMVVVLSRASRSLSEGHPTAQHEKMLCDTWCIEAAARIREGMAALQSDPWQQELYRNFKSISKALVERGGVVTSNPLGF
The test can be described thus: 19F NMR binding study with fluorinated SAHB. Particulars: fluorinated SAHB 25 μM, VLCAD 0-125 μM. The procedure: To measure the direct binding interaction, ^19F NMR binding studies were conducted using fluorinated analogs of MCL-1 SAHBD. […] Both SAHBs, however, bind MCL-1ΔNΔC, as illustrated by a chemical shift of the peptide NMR peak in both cases (FIG. 15). […] To perform these experiments, N-terminal Btn-PEG analogs of the peptides were immobilized onto streptavidin probes that were then placed into protein solutions at a variety of concentrations to measure ligand-target association.
VLCAD. Mature human VLCAD lacking its cleavable leader sequence (aa 40-655) (NP_000009.1) was subcloned into the pET19b vector (Novagen) using NdeI and XhoI restriction sites. Correct insertion was confirmed by DNA sequencing. […]
To determine binding of SAHBs to VLCAD, fluorinated SAHB (25 μM) and VLCAD (0-125 μM) were mixed together in VLCAD FPLC buffer including 10% D2O to a final volume of 500 μL. […] The extent to which VLCAD bound the peptide was determined by measuring the peak width at half height (ν1/2) of the peptide ^19F signal. […] MCL-1ΔNΔC binding to SAHBs causes a change in the ^19F chemical shift of the peptide resulting in two peptide signals (instead of peak broadening), so extent of binding was quantified by measuring the peak height of “unbound” peptide relative to the bound peptide signal.

On to “MCL-1 SAHBD: hydrocarbon-stapled peptide mimicking the MCL-1 BH3 domain (Stabilized Alpha-Helix of BCL-2 Domain), SEQ ID NO:19 (RKALETLRRVGDGV[S5]RNH[S5]TAF; staple 15-19)”, for which the “19F NMR peptide peak broadening on VLCAD titration” value is listed as “peak broadens, indicative of a direct binding event”.

The values above are taken from US12366576B2, “Compositions, assays, and methods for direct modulation of fatty acid metabolism” (Dana-Farber Cancer Institute, Inc., priority 2016, dated 2025).
